Test results as given in paper PMC10786891, “Massively parallel profiling of RNA-targeting CRISPR-Cas13d”.
Positions count from the first letter of the chain named. Names and notes keep the numbering of the source.

T1: EsCas13d, nuclease-dead (Eubacterium siraeum, UniProt B0MS50, R295A;H300A;R849A;H854A)
T1 sequence: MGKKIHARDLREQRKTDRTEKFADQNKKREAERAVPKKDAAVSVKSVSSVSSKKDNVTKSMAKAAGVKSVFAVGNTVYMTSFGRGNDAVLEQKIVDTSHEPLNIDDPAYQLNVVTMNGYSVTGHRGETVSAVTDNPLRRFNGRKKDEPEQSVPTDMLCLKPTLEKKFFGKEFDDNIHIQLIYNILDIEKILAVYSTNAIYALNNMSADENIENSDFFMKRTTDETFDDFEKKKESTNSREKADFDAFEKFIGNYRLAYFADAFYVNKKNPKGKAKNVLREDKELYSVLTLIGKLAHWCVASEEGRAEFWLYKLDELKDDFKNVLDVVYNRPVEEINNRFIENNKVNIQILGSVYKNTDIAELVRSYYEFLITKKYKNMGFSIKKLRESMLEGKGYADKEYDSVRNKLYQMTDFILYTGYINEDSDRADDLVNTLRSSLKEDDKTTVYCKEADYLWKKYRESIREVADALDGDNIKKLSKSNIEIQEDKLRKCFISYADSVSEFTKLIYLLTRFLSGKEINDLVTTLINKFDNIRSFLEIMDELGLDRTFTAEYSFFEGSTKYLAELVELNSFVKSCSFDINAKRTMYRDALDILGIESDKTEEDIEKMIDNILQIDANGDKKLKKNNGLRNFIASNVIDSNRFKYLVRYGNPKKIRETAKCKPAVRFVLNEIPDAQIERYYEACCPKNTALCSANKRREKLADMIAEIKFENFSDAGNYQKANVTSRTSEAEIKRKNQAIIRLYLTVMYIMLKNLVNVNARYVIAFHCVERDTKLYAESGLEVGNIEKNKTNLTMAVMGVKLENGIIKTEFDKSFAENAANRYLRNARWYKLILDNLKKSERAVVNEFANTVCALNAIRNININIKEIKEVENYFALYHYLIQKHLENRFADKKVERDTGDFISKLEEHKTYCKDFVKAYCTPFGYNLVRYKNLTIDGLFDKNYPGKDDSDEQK

B1: target 1 insU 3' of 21,insC 3' of 10 (mixed)
RNA 1: CACCCGUGCAAAAAUGCAGGGGUCUAAAACUGAGCGGAUAACCUCUCUAUGG
RNA 2: GGGAAUGGAUCCACAUCUACGAAUUCGUACCUAUAGAGAGGUUCAUCCGCUCACCGAGAUCGGAAGAGCACACGU
B2: target 1 insA 3' of 22,insU 3' of 13 (mixed)
RNA 1: B1 RNA 1
RNA 2: B1 RNA 2 with C31A, U32C, G41U, U42G, C44U
B3: target 1 complement block 3-6 (mixed)
RNA 1: B1 RNA 1
RNA 2: GGGAAUGGAUCCACAUCUACGAAUUCGUACCAUAGAGAGGUUAUCGCGACACCGAGAUCGGAAGAGCACACGU
B4: target 1 C2G,G13U (mixed)
RNA 1: B1 RNA 1
RNA 2: B3 RNA 2 with G39U, G46C, C47G, G48C, A49U, C50G
B5: target 1 A9U,U10A (mixed)
RNA 1: B1 RNA 1
RNA 2: B3 RNA 2 with U42A, A43U, G46C, C47G, G48C, A49U
B6: target 1 G17A,C22A (mixed)
RNA 1: B1 RNA 1
RNA 2: B3 RNA 2 with C30A, G35A, G46C, C47G, G48C, A49U
B7: target 1 C2A,C6U (mixed)
RNA 1: B1 RNA 1
RNA 2: B3 RNA 2 with G46U, C47G, G48C, A49U, C50A
B8: target 1 insU 3' of 17,insG 3' of 8 (mixed)
RNA 1: B1 RNA 1
RNA 2: B1 RNA 2 with U32A, A33U, U34A, A35G, G36U, C44A, A45U, U46G
B9: target 1 insC 3' of 20,insC 3' of 9 (mixed)
RNA 1: B1 RNA 1
RNA 2: B1 RNA 2 with U32A, A33C, C44A, A45C
B10: target 1 insU 3' of 13,insC 3' of 5 (mixed)
RNA 1: B1 RNA 1
RNA 2: GGGAAUGGAUCCACAUCUACGAAUUCGUACCAUAGAGAGUGUUAUCCGCCUCACCGAGAUCGGAAGAGCACACGU
B11: target 1 C7A,G12C (mixed)
RNA 1: B1 RNA 1
RNA 2: B3 RNA 2 with G40C, C45A, G46C, C47G, G48C, A49U
B12: target 1 insC 3' of 19 (mixed)
RNA 1: B1 RNA 1
RNA 2: GGGAAUGGAUCCACAUCUACGAAUUCGUACCAUCAGAGAGGUUAUCCGCUCACCGAGAUCGGAAGAGCACACGU
B13: target 1 insA 3' of 12,insG 3' of 2 (mixed)
RNA 1: B1 RNA 1
RNA 2: B10 RNA 2 with U40G, G41A, C50U, U51C, C52G
B14: target 1 insG 3' of 7,insU 3' of 4 (mixed)
RNA 1: B1 RNA 1
RNA 2: B10 RNA 2 with U40G, G41U, U43A, A44U, U45C, C46G, C50U
B15: target 1 insC 3' of 15,insG 3' of 2 (mixed)
RNA 1: B1 RNA 1
RNA 2: B10 RNA 2 with A38C, G39A, U40G, C50U, U51C, C52G
B16: target 1 C4G,A9U (mixed)
RNA 1: B1 RNA 1
RNA 2: B3 RNA 2 with A43U, G46C, C47G, A49U
B17: target 1 C2U,U3G (mixed)
RNA 1: B1 RNA 1
RNA 2: B3 RNA 2 with G46C, C47G, G48C, A49G, C50U
B18: target 1 G12A,G17C (mixed)
RNA 1: B1 RNA 1
RNA 2: B3 RNA 2 with G35C, G40A, G46C, C47G, G48C, A49U
B19: target 1 A9G,U19C (mixed)
RNA 1: B1 RNA 1
RNA 2: B3 RNA 2 with U33C, A43G, G46C, C47G, G48C, A49U
B20: target 1 insU 3' of 20,insU 3' of 5 (mixed)
RNA 1: B1 RNA 1
RNA 2: B1 RNA 2 with U32A, A33U, C44A, A45U, U46C, C48G, G49U
B21: target 1 insG 3' of 11,insA 3' of 8 (mixed)
RNA 1: B1 RNA 1
RNA 2: B10 RNA 2 with U40G, G41U, U42G, C46A, G48C, C49G
B22: target 1 G5A,G12U (mixed)
RNA 1: B1 RNA 1
RNA 2: B3 RNA 2 with G40U, G46C, C47A, G48C, A49U
B23: target 1 insG 3' of 10,insU 3' of 7 (mixed)
RNA 1: B1 RNA 1
RNA 2: B10 RNA 2 with U40G, G41U, U43G, C47U, G48C, C49G
B24: target 1 insC 3' of 11,insG 3' of 7 (mixed)
RNA 1: B1 RNA 1
RNA 2: B10 RNA 2 with U40G, G41U, U42C, C47G, G48C, C49G
B25: target 1 insU 3' of 20,insC 3' of 11 (mixed)
RNA 1: B1 RNA 1
RNA 2: B1 RNA 2 with U32A, A33U, U43C, C44U
B26: target 1 insU 3' of 13,insU 3' of 2 (mixed)
RNA 1: B1 RNA 1
RNA 2: B10 RNA 2 with C50U, U51C, C52U
B27: target 1 C7U,U19A (mixed)
RNA 1: B1 RNA 1
RNA 2: B3 RNA 2 with U33A, C45U, G46C, C47G, G48C, A49U
B28: target 1 insU 3' of 20,insA 3' of 7 (mixed)
RNA 1: B1 RNA 1
RNA 2: B1 RNA 2 with U32A, A33U, C44A, A45U, U46C, C47A
B29: target 1 U3A,A9C (mixed)
RNA 1: B1 RNA 1
RNA 2: B3 RNA 2 with A43C, G46C, C47G, G48C
B30: target 1 insC 3' of 18,insA 3' of 8 (mixed)
RNA 1: B1 RNA 1
RNA 2: B1 RNA 2 with U32A, A33U, U34A, A35C, C44A, A45U, U46A
B31: target 1 insC 3' of 18 (mixed)
RNA 1: B1 RNA 1
RNA 2: B12 RNA 2 with C34A, A35C
B32: target 1 insA 3' of 15,insG 3' of 6 (mixed)
RNA 1: B1 RNA 1
RNA 2: B10 RNA 2 with G39A, U40G, C49G
B33: target 1 insG 3' of 18,insG 3' of 4 (mixed)
RNA 1: B1 RNA 1
RNA 2: B10 RNA 2 with A36G, G37A, A38G, G39A, U40G, C50G

These binders were tested against T1, EsCas13d, nuclease-dead (assay: crRNA (strand 1, pre-loaded); Mg2+; 40 mM Tris-HCl pH 7.5, 150 mM NaCl, 6 mM MgCl2, 1 mM DTT, 0.1% Tween-20, 0.2 mg/ml BSA; 25 C; 10 min per concentration, then washed). Details: tags: His6-TwinStrep-SUMO cleaved; N-terminal SNAP kept (SNAP-Surface 488); label: 3' end held by stalled T7 RNA polymerase.

Row | Binder | Kd [nM]
1 | B1 | 51 ± 9
2 | B2 | 20.6 ± 2.9
3 | B3 | 5.84 ± 0.3
4 | B4 | ~60
5 | B5 | 20.5 ± 2.1
6 | B6 | 57 ± 7
7 | B7 | 5.88 ± 0.27
8 | B8 | 21 ± 1.2
9 | B9 | 8.9 ± 0.6
10 | B10 | 21 ± 4
11 | B11 | 16.4 ± 1.1
12 | B12 | 26.9 ± 2.2
13 | B13 | 30 ± 4
14 | B14 | 6.4 ± 0.4
15 | B15 | 17.9 ± 1.3
16 | B16 | 3.93 ± 0.23
17 | B17 | 21 ± 4

Row | Binder | Kd [nM]
18 | B18 | 34 ± 8
19 | B19 | 33.8 ± 3.3
20 | B20 | 24 ± 4
21 | B21 | 40.5 ± 2.5
22 | B22 | 14.4 ± 1.4
23 | B23 | 21.8 ± 0.9
24 | B24 | 23.8 ± 1.5
25 | B25 | 62 ± 18
26 | B26 | 16.6 ± 2.1
27 | B27 | 34 ± 4
28 | B28 | 9.9 ± 0.6
29 | B29 | 14.6 ± 2
30 | B30 | 69 ± 10
31 | B31 | 30.3 ± 1.9
32 | B32 | 9.3 ± 0.5
33 | B33 | 37.5 ± 3.1
